US20160108123A1 (Novartis, published 2016)

How the values were obtained:
mouse PD-L1 protein = mouse PD-L1 protein (mouse, UniProt Q9EP73 19-238, limits assumed); assay: Biacore T-100; IgG captured by anti-human Fab on CM5 chip, PD-L1 flowed over (100-1.56 nM), 1:1 fit
Protocol: (§1) Immobilization was done at 25° C. using a flow rate of 10 μl/min. […] Test antibody was captured on Flow cell FC2, FC3 and FC4. […] Run Biacore Wizards Kinetic/Affinity: association time 120 sec, dissociation 600 sec. (Running buffer HBS-EP+BSA 0.25 mg/ml, Regeneration buffer: 10 mM glycine HCl pH 2.1). Data analyses were done with Biacore T-100 Evaluation software version 2, fit on 1:1.

cynomolgus PD-L1 protein = target: T1, cynomolgus PD-L1 protein (cynomolgus, UniProt G7PSE7 19-238); assay: as above
T1 construct: also called Monkey PD-L1; cyno PD-L1
Protocol: as §1

human PD-L1 protein = target: T2, human PD-L1 protein (human, UniProt Q9NZQ7 19-238, limits assumed); assay: as above
T2 construct: Construct not described
Protocol: as §1

rat PD-L1 protein = rat PD-L1 protein (rat, UniProt D4AE25 19-239); assay: as above
Protocol: as §1

[1] = target: T3, human PD-L1 expressed on 300.19 cells (human, UniProt Q9NZQ7 19-290); assay: blocking of PE-labelled PD-1-Ig (0.7 µg/mL) binding to PD-L1-expressing 300.19 cells, FACS, 4 C, 4 h
T3 construct: whole, on cells; also called huPD-L1; PD-L1-expressing 300.19 cells
Protocol: (§2) Bound fluorescence was then measured using FACS and IC₅₀ values determined using Prism software.

[2] = target: T3, human PD-L1 expressed on 300.19 cells; assay: semi-quantitative ranking in the binding studies (4th column, p-1058; FACS data, p-1056); high number = poorer binder; the column's head says only 'Rank'
[3] = target: T3, human PD-L1 expressed on 300.19 cells; assay: competition FACS against Alexa 488-labeled murine BAP058 on PD-L1-expressing 300.19 cells
Protocol: (§3) Incubations with the mAb mixtures having different concentration ratios of test mAb to labeled mAb was at 4° C. for 30 min. Bound labeled murine mAb was then quantified using a FACS machine. The experiment was performed twice.

[4] = target: T3, human PD-L1 expressed on 300.19 cells; assay: FACS competition; blocking of PE-labelled PD-1-Ig (0.7 ug/mL) on PD-L1-expressing 300.19 cells
Protocol: as §2

[5] = target: T3, human PD-L1 expressed on 300.19 cells; assay: FACS competition on PD-L1-expressing 300.19 cells; competitor Alexa 488-labeled murine BAP058
Protocol: as §3

T3 sequence (Q9NZQ7 19-290): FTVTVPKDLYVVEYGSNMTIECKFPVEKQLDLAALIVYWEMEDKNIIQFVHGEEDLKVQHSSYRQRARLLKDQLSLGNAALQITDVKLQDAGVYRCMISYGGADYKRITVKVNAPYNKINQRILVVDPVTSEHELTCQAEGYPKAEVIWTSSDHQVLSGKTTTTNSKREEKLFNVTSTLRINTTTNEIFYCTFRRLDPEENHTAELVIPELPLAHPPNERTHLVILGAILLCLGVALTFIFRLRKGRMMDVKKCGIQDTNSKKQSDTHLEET
T1 sequence (G7PSE7 entry or part of it): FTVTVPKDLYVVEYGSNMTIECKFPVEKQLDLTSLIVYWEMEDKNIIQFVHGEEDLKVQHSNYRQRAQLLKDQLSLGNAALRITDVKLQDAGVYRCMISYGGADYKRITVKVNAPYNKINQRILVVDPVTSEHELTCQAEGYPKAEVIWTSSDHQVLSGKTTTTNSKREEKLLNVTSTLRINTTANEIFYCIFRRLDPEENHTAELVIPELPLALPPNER
T2 sequence (Q9NZQ7 19-238 limits assumed): as the sequence (G7PSE7 entry or part of it) above, with T33A, S34A, N62S, Q68R, R82Q, L173F, A185T, I192T, L215H counted along it
Sequence of mouse PD-L1 protein (Q9EP73 19-238 limits assumed): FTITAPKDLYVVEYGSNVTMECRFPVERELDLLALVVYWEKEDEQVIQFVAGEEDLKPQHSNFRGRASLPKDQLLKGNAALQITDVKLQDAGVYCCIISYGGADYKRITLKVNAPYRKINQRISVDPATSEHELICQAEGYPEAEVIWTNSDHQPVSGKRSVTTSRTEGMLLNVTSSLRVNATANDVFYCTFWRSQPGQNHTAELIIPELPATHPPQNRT
Sequence of rat PD-L1 protein (D4AE25 entry or part of it limits assumed): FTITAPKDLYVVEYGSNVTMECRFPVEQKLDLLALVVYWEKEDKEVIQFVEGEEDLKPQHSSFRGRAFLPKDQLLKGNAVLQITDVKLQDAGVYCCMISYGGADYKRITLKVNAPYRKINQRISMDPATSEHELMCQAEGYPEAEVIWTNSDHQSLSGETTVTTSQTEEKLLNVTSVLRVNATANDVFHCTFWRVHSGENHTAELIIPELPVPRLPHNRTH

B1: BAP058-hum13 (antibody, human IgG4 S228P, kappa, V domains shown)
VH: EVQLVQSGAEVKKPGATVKISCKVSGYTFTSYWMYWVRQARGQRLEWIGRIDPNSGSTKYNEKFKNRFTISRDNSKNTLYLQMNSLRAEDTAVYYCARDYRKGLYAMDYWGQGTTVTVSS
VL: AIQLTQSPSSLSASVGDRVTITCKASQDVGTAVAWYLQKPGQSPQLLIYWASTRHTGVPSRFSGSGSGTDFTFTISSLEAEDAATYYCQQYNSYPLTFGQGTKVEIKR
notes: Humanized IgG4(S228P)/human kappa mAb expressed in CHO cells
Q: Which results are given for B1?
A: Kd (mouse PD-L1 protein): 0.04 nM; Kd (cynomolgus PD-L1 protein): 0.431 nM; Kd (human PD-L1 protein): 0.137 nM; Kd (rat PD-L1 protein): 0.431 nM; IC50 (read off the curve) [1]: ~0.04 µg/mL; Rank [2]: 2; Comp. binding (ratio conc. test mAb / conc. labelled murine BAP058 at the IC50) [3]: 2.91

B2: BAP058-hum11 (antibody, human IgG4 S228P, kappa, V domains shown)
VH: EVQLVQSGAEVKKPGATVKISCKVSGYTFTSYWMYWVRQATGQGLEWMGRIDPNSGSTKYNEKFKNRVTITADKSTSTAYMELSSLRSEDTAVYYCARDYRKGLYAMDYWGQGTTVTVSS
VL: DVVMTQSPLSLPVTLGQPASISCKASQDVGTAVAWYQQKPGQAPRLLIYWASTRHTGVPSRFSGSGSGTEFTLTISSLQPDDFATYYCQQYNSYPLTFGQGTKVEIKR
notes: as for B1
Q: What does the source list for B2?
A: Kd (mouse PD-L1 protein): 0.075 nM; Kd (cynomolgus PD-L1 protein): 0.735 nM; Kd (human PD-L1 protein): 0.931 nM; Kd (rat PD-L1 protein): 1.36 nM; IC50 (read off the curve) [1]: ~0.04 µg/mL; Rank [2]: 4; Comp. binding (ratio conc. test mAb / conc. labelled murine BAP058 at the IC50) [3]: 1.3

B3: murine anti-PD-L1 monoclonal antibody BAP058 (antibody, V domains shown)
VH: QVHLQQPGAELVKPGASVKLSCKASGYTFTSYWMYWVKQGPGRGLEWIGRIDPNSGSTKYNEKFKNKATLTVDKSSSTAYMQLSSLTSEDSAVYYCARDYRKGLYAMDYWGQGTSVTVSS
VL: DIVMTQSHKFMSTSVGDRVSITCKASQDVGTAVAWYQQKPGQSPKLLIYWASTRHTGVPDRFTGSGSGTDFTLTISNVQSEDLADYFCQQYNSYPLTFGAGSKLELK
notes: Murine mAb; also called murine mAb BAP058; murine parent mAb
Q: B3 was tested. Which IC50 [4] did it give?
A: 0.3 nM

Q: And the “ratio for the IC50 value (concentration of test mAb over labelled murine BAP058)” value [5]?
A: 1.34
